# Reference: patent US20220119490A1 (Genentech, published 2022)
# T1: CHL1 extracellular domain (human, UniProt O00533 25-1082)
# T1 construct: extracellular domain; Soluble query (streptavidin tetramer) in cell assays; recombinant protein (R&D) in SPR; also called neural cell adhesion molecule L1-like protein; close homolog of L1
# T1 sequence (looked up): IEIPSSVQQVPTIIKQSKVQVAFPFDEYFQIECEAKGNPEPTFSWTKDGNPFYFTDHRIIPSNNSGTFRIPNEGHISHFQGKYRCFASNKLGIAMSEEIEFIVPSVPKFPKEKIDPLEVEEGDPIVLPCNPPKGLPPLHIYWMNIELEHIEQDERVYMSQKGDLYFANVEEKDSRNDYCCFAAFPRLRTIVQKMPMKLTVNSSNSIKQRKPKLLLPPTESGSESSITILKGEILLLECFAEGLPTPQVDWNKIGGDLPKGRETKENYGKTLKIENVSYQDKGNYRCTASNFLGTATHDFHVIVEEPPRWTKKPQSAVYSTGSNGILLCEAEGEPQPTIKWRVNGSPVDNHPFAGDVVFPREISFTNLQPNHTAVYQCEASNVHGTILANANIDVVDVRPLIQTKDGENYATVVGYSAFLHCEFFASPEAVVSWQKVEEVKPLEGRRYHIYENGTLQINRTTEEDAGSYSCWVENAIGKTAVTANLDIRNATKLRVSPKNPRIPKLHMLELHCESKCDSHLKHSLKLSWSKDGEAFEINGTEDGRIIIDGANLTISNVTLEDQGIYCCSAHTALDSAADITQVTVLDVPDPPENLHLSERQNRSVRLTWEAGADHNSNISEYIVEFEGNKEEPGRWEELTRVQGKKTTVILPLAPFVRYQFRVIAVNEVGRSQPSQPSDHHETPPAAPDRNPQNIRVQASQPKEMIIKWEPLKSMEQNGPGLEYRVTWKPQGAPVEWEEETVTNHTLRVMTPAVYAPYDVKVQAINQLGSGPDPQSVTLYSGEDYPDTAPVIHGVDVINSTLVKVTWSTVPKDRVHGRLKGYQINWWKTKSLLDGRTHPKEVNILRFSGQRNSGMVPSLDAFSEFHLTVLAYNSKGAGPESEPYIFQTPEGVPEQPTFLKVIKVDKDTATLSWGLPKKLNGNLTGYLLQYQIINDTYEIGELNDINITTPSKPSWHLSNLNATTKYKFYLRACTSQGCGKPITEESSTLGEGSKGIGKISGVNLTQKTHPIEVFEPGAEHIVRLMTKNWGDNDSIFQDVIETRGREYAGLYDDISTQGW
# T2: MDGA1 (human, UniProt Q8NFP4, biotinylated)
# T2 construct: extracellular domain; also called MAM domain-containing glycosylphosphatidylinositol anchor protein 1; soluble query
# T2 sequence (soluble query ectodomain, looked up): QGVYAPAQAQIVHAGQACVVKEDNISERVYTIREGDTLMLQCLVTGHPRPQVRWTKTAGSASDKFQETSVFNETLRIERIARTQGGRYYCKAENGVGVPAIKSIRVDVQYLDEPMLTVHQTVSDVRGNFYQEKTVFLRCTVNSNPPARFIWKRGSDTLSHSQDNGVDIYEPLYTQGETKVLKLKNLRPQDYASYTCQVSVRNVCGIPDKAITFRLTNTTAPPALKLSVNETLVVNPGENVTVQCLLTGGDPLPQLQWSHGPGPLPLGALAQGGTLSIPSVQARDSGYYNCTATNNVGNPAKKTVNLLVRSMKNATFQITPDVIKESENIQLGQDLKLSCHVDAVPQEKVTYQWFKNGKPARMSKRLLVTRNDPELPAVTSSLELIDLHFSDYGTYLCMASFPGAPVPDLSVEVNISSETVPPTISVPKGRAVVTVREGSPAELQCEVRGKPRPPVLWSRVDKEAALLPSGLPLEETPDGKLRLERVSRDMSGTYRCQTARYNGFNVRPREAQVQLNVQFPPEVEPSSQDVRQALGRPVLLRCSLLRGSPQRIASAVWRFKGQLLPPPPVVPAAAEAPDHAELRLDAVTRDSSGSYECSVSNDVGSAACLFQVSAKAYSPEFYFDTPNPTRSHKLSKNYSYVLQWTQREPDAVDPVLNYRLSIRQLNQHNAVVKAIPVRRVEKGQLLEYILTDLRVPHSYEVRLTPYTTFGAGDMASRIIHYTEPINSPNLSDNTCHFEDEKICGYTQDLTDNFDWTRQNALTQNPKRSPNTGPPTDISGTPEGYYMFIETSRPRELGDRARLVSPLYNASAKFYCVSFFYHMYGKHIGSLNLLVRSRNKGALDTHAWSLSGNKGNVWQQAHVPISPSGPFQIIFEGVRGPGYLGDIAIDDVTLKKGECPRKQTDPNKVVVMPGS
# T3: UNC5A (human, UniProt Q6ZN44)
# T3 construct: expressed on cells; also called UNC5A expressed on cells
# T3 sequence (cell-surface-expressed binding partner, looked up): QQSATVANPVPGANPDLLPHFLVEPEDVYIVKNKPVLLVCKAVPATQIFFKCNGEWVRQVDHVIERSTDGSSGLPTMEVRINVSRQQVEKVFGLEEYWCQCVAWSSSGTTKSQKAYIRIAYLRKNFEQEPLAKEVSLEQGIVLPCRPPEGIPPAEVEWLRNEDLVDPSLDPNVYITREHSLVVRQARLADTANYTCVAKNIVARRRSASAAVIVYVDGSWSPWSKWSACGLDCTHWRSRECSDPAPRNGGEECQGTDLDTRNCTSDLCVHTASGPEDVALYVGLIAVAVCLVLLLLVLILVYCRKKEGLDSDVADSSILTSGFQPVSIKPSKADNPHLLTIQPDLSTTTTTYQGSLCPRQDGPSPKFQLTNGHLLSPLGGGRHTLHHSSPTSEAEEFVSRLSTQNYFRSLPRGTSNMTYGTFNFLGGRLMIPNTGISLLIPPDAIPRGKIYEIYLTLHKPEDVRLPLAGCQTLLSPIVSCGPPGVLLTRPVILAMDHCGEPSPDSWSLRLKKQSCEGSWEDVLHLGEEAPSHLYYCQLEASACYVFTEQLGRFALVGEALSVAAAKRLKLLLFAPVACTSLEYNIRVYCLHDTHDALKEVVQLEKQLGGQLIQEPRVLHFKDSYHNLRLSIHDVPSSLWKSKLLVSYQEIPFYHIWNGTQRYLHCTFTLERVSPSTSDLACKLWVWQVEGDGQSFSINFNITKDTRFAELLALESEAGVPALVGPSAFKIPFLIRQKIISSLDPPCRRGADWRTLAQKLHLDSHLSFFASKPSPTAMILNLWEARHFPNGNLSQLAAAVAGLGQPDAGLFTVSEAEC
# T4: UNC5D (human, UniProt Q6UXZ4)
# T4 construct: expressed on cells; also called UNC5D expressed on cells
# T4 sequence (cell-surface-expressed binding partner, looked up): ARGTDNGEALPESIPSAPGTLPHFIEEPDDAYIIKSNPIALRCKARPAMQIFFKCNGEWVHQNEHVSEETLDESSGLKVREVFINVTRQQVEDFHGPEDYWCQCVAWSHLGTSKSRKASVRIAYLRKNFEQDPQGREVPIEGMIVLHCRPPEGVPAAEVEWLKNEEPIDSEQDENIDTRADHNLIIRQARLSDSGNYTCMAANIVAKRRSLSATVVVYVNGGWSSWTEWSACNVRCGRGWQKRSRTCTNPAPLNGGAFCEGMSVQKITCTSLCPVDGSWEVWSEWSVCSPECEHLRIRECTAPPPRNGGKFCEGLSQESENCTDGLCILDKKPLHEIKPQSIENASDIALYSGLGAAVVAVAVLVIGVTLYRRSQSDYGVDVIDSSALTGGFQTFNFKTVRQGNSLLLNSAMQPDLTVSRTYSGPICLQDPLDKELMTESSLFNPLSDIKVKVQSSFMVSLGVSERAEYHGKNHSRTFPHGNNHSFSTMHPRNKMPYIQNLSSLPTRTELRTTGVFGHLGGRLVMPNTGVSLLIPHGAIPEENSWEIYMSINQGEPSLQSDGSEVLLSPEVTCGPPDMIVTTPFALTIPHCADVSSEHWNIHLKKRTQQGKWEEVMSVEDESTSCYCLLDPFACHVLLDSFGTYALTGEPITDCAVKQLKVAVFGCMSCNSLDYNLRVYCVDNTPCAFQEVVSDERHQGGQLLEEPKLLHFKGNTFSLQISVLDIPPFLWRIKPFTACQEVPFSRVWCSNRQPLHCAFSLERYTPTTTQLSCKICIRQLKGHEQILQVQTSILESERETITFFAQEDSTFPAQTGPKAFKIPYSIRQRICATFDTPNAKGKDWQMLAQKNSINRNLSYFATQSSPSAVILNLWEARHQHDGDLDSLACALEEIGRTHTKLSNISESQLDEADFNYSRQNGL
# B1: CNTN5 expressed on cells (receptor, human, UniProt O94779 19-1072, looked up)
# chain: EYSKSLPGLSTSYAALLRIKKSSSSSLFGSKTRPRYSSPSLGTLSASSPSWLGAAQNYYSPINLYHSSDAFKQDESVDYGPVFVQEPDDIIFPTDSDEKKVALNCEVRGNPVPSYRWLRNGTEIDLESDYRYSLIDGTFIISNPSEAKDSGHYQCLATNTVGSILSREATLQFAYLGNFSGRTRSAVSVREGQGVVLMCSPPPHSPEIIYSWVFNEFPSFVAEDSRRFISQETGNLYISKVQTSDVGSYICLVKNTVTNARVLSPPTPLTLRNDGVMGEYEPKIEVHFPFTVTAAKGTTVKMECFALGNPVPTITWMKVNGYIPSKARLRKSQAVLEIPNVQLDDAGIYECRAENSRGKNSFRGQLQVYTYPHWVEKLNDTQLDSGSPLRWECKATGKPRPTYRWLKNGVPLSPQSRVEMVNGVLMIHNVNQSDAGMYQCLAENKYGAIYASAELKILASAPTFALNQLKKTIIVTKDQEVVIECKPQGSPKPTISWKKGDRAVRENKRIAILPDGSLRILNASKSDEGKYVCRGENVFGSAEIIASLSVKEPTRIELTPKRTELTVGESIVLNCKAIHDASLDVTFYWTLKGQPIDFEEEGGHFESIRAQASSADLMIRNILLMHAGRYGCRVQTTADSVSDEAELLVRGPPGPPGIVIVEEITESTATLSWSPAADNHSPISSYNLQARSPFSLGWQTVKTVPEIITGDMESAMAVDLNPWVEYEFRVVATNPIGTGDPSTPSRMIRTNEAVPKTAPTNVSGRSGRRHELVIAWEPVSEEFQNGEGFGYIVAFRPNGTRGWKEKMVTSSEASKFIYRDESVPPLTPFEVKVGVYNNKGDGPFSQIVVICSAEGEPSAAPTDVKATSVSVSEILVAWKHIKESLGRPQGFEVGYWKDMEQEDTAETVKTRGNESFVILTGLEGNTLYHFTVRAYNGAGYGPPSSEVSATTKKSPPSQAPSNLRWEQQGSQVSLGWEPVIPLANESEVVGYKVFYRQEGHSNSQVIETQKLQAVVPLPDAGVYIIEVRAYSEGGDGTASSQIRVPSYSGGKITS
# notes: whole, on cells; also called contactin 5
# B2: NLGN3 (receptor, human, UniProt Q9NZ94 38-848, looked up)
# cell-surface-expressed binding partner: QAPAPTVNTHFGKLRGARVPLPSEILGPVDQYLGVPYAAPPIGEKRFLPPEPPPSWSGIRNATHFPPVCPQNIHTAVPEVMLPVWFTANLDIVATYIQEPNEDCLYLNVYVPTEDVKRISKECARKPNKKICRKGGSGAKKQGEDLADNDGDEDEDIRDSGAKPVMVYIHGGSYMEGTGNMIDGSILASYGNVIVITLNYRVGVLGFLSTGDQAAKGNYGLLDQIQALRWVSENIAFFGGDPRRITVFGSGIGASCVSLLTLSHHSEGLFQRAIIQSGSALSSWAVNYQPVKYTSLLADKVGCNVLDTVDMVDCLRQKSAKELVEQDIQPARYHVAFGPVIDGDVIPDDPEILMEQGEFLNYDIMLGVNQGEGLKFVEGVVDPEDGVSGTDFDYSVSNFVDNLYGYPEGKDTLRETIKFMYTDWADRDNPETRRKTLVALFTDHQWVEPSVVTADLHARYGSPTYFYAFYHHCQSLMKPAWSDAAHGDEVPYVFGVPMVGPTDLFPCNFSKNDVMLSAVVMTYWTNFAKTGDPNKPVPQDTKFIHTKANRFEEVAWSKYNPRDQLYLHIGLKPRVRDHYRATKVAFWKHLVPHLYNLHDMFHYTSTTTKVPPPDTTHSSHITRRPNGKTWSTKRPAISPAYSNENAQGSWNGDQDAGPLLVENPRDYSTELSVTIAVGASLLFLNVLAFAALYYRKDKRRQEPLRQPSPQRGAGAPELGAAPEEELAALQLGPTHHECEAGPPHDTLRLTALPDYTLTLRRSPDDIPLMTPNTITMIPNSLVGLQTLHPYNTFAAGFNSTGLPHSHSTTRV
# notes: expressed on cells; also called NLGN3 expressed on cells
# B3: FLRT3 (receptor, human, UniProt Q9NZU0 29-528, looked up)
# soluble query ectodomain: KSCPSVCRCDAGFIYCNDRFLTSIPTGIPEDATTLYLQNNQINNAGIPSDLKNLLKVERIYLYHNSLDEFPTNLPKYVKELHLQENNIRTITYDSLSKIPYLEELHLDDNSVSAVSIEEGAFRDSNYLRLLFLSRNHLSTIPWGLPRTIEELRLDDNRISTISSPSLQGLTSLKRLVLDGNLLNNHGLGDKVFFNLVNLTELSLVRNSLTAAPVNLPGTNLRKLYLQDNHINRVPPNAFSYLRQLYRLDMSNNNLSNLPQGIFDDLDNITQLILRNNPWYCGCKMKWVRDWLQSLPVKVNVRGLMCQAPEKVRGMAIKDLNAELFDCKDSGIVSTIQITTAIPNTVYPAQGQWPAPVTKQPDIKNPKLTKDHQTTGSPSRKTITITVKSVTSDTIHISWKLALPMTALRLSWLKLGHSPAFGSITETIVTGERSEYLVTALEPDSPYKVCMVPMETSNLYLFDETPVCIETETAPLRMYNPTTTLNREQEKEPYKNPNLP
# modifications: biotinylated
# notes: extracellular domain; also called soluble query
# Columns and labels:
# [1] = biological target: T1, CHL1 extracellular domain; experiment: cell surface interaction assay: streptavidin-tetramerized biotinylated ECD on transfected cells, immunofluorescence
# MDGA1 = biological target: T2, MDGA1; experiment: cell surface interaction assay: query ECD tetramerised with fluorescent streptavidin on transfected cells, immunofluorescence
# UNC5A = biological target: T3, UNC5A; experiment: as above
# UNC5D = biological target: T4, UNC5D; experiment: as above
binder,measurement,setting,value
B1,binding result,[1],binds
B2,binding result,MDGA1,binds
B3,binding result,UNC5A,binds
same,binding result,UNC5D,binds
